Test results as given in PMC5599796, “Structural insights into transcription initiation by yeast RNA polymerase I” (The EMBO Journal, 2017).

B1: Rrn11 (natural protein, yeast)
chain: MFEVPITLTNRKFAQRRKLKYQYINYISRRFDRISKKSTTTDSLPTPENSAAENNDEEEGQNSEAGTYRRSVLQQKKRRRERHWRSVVGEIYSTTESETDSQEEETEEGGEHDTGIDKEDSDEERKFWKKYEKPEKSFEIWRTVSSQNKQPINKQKMTYHNFKKIEKIPLRKMEIPLLHCTKENKLYFQSISRGLEPLKTSTSEVRNYRTRHIVTLTDLLHLNVSRHNWSLAYKIFATLIRIPGVQIKSLWGIGVEILDNLSNSSSGLDFLQWMCQIYSSKSRFVQNINYRSIVPPFQTGSRTHTAKFAITYLWSSLINCQKSMEPSSNIIDKPFDTENDLLQELIDKISEWVLTPPFMEDAEVWFIYASCHLLKADTLSRQFVNDNKNNDLIGLDRDIKINQVIKHIHYVRTFLKICLDKGGFAVPSRLIENQLKSFESRLYGEAQDIQERDVANVYDSIDNSSVENSFGDVYETNAEFLDTQLMDLSPEDNGLDEMHYSDEDSSE
notes: Rrn11, subunit of yeast Core Factor; Stood in the assay as a subunit of CF within the Pol I PIC; also called CF subunit Rrn11; source: E. coli BL21(DE3)Star pRARE, co-expressed as Core Factor, purified
B2: Rpb12 (natural protein, UniProt P40422 1-70, looked up)
chain: MSREGFQIPTNLDAAAAGTSQARTATLKYICAECSSKLSLSRTDAVRCKDCGHRILLKARTKRLVQFEAR
notes: Rpb12, subunit of yeast RNA polymerase I; Stood in the assay as a subunit of Pol I within the PIC; source: purified from S. cerevisiae strain SC1613 as a subunit of Pol I

How the values were obtained:
A135 = molecular target: T1, A135 (S. cerevisiae (endogenous in strain …, UniProt P22138 1-1203)); assay: cryo-EM structure; Pol I (1.5 uM) and Rrn3 (3 uM) mixed 5 h at 4°C, then 70-bp transcription scaffold (-50 to +20, 15-nt mismatch, 10-nt RNA) 1 h, then CF (1.5 uM); dialysed from 300 to 100 mM potassium acetate, 50 mM HEPES-NaOH pH 7.5, 5 mM magnesium acetate, 10 mM DTT; 38,589 particles, 4.4 Å; conditions: both partners purified
T1 construct: A135, second largest subunit of yeast RNA polymerase I; Stood in the assay as a subunit of Pol I within the PIC; also called second largest subunit of Pol I; source: purified from S. cerevisiae strain SC1613 as a subunit of Pol I
T1 sequence (looked up): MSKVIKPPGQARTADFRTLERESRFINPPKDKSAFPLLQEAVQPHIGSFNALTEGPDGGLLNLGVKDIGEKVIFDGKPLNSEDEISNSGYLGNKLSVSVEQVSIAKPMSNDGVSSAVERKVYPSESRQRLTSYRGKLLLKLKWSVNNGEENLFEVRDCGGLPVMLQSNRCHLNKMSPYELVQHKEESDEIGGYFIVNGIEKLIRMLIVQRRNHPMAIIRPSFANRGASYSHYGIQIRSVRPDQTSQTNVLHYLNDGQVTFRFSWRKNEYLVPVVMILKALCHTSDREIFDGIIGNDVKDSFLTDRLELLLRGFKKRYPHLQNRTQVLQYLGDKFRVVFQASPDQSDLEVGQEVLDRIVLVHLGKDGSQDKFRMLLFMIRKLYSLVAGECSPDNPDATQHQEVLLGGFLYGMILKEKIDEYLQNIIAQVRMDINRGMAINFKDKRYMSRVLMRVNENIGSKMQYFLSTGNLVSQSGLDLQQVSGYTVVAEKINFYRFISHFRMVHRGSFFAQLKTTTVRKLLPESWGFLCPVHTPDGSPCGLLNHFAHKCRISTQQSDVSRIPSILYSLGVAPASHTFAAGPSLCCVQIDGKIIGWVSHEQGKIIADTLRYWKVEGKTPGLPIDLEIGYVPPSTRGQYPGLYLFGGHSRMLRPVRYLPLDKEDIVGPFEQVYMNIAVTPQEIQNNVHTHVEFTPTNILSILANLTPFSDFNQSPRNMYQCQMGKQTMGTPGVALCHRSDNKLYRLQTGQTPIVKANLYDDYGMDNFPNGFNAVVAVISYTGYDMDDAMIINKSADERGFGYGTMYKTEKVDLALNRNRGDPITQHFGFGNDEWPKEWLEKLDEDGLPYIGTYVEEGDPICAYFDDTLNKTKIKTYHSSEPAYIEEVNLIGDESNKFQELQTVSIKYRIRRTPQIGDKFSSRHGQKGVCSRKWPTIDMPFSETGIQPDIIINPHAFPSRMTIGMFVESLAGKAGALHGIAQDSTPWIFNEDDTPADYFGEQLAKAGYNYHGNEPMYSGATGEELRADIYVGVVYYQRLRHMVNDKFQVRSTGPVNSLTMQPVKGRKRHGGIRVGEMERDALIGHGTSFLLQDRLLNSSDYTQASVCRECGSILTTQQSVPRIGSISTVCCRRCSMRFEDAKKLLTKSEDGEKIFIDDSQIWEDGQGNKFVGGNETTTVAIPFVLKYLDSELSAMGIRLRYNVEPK

Rrn7 = molecular target: T2, Rrn7 (yeast, UniProt P40992 1-514); assay: cross-linking; purified Pol I PIC (50 ug, 1 mg/ml) with H12/D12 DSS at 2 and 5 mM, 30 min at 37°C; LC-MS/MS, xQuest, LD score at least 23; conditions: both partners purified
T2 construct: Rrn7, TFIIB-like subunit of yeast Core Factor; Stood in the assay as a subunit of CF within the Pol I PIC; also called CF subunit Rrn7; TFIIB-related subunit Rrn7; source: E. coli BL21(DE3)Star pRARE, co-expressed as Core Factor, purified
T2 sequence: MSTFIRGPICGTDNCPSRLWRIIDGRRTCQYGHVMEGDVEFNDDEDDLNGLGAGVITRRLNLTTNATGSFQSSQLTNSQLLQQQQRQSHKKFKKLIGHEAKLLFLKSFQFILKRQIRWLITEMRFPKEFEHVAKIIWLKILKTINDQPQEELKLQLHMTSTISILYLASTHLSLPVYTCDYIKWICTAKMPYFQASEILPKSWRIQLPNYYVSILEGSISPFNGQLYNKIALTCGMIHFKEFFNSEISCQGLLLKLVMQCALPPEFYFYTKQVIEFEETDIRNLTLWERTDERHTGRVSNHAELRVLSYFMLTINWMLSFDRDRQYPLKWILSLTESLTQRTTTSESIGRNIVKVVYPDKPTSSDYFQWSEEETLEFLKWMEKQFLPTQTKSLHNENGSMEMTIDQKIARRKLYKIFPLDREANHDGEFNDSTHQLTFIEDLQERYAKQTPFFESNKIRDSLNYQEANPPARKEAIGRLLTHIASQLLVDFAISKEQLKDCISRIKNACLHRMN

Binder | binding result (A135) | binding result (Rrn7)
B1 | binds | –
B2 | – | binds
